Assay: label from the status in PepcDB records

Row | Sequence | protein production
1 | MDKDLKLRPRIKRLLSPAVMQAELLGGAAWLWVLMLGPSVKINLFTCFLTLSLACICWIQHTTTVFCIWRLLGIAYMLLLATGFFYLMDGDPEINIFALPLTITLAISSALLFVKFLDYLLSAVFVWLLTWLCWQEGVYGEIGIYVWIFCVASVCIGSVLNISYIKTLRAVLSLESKFRELAETDYLTSIPNRRAFMESFDSLIKGGESGYLIMLDIDNFKLINDRHGHEIGDRILCSMAACLRATSGSHCAGRIGGEEFGVLITGGDELTACDYILRLLETVRANFDPPYNYSCSVGMVRFSAASTMSEALSMADKSMYIAKRNGKDCAYFEGQEIVSFLFDDSKLKEKYPTETLSENTYQTDTQ | failed
2 | MDKIIIQGARENNLKNIFLEIPKNQFVVFTGLSGSGKSTLAFDTLYAEGQRRYLESLSSYARQFLDKVGKPNVDKIEGLTPAIAIDQKTTSKNPRSTVGTITEIYDYLRLLFARVGEQFCPTCLEPISSMSTSDIISQICHLEENSKIIILAPIIKDKKGSFNDKLESLRLKGYVRAFVDGVMVRLDEEIHLHKTKKHTIEAVVDRVVVNNENASRIASAIEKALKESYGELEVEILQDNAPSIRKHYSEHKACFKCKMSFEELEPLSFSFNSPKGACESCLGLGTKFSLDISKILDPNTPLNQGAIKVIFGYNRSYYAQMFEGFCEYNGIDSALCFNELNKEQQDALLYGNGTEISFHFKNSPLKRPWKGIIQIAYDMFKEQKDLSDYMSEKTCSSCEGHRLKASSLSVQVAGLKMADFLTKPIEEVYHFFNDPTHFSYLNEQEKKIAEPILKEILERVFFLYDVGLGYLTLGRDARTISGGESQRIRIASQIGSGLTGVLYVLDEPSIGLHEKDTLKLINTLRNLQKKGNTLIVVEHDKETIKHADFVVDIGPKAGRHGGEVVFSGSVKELLQNNHSTALYLNGTKKIERPKFELPKEKHFLEIKNVNINNIKNLSVQIPLKQLVCITGVSGSGKSSLILQTLLPTAQTLLNHAKKTQSLNGVEIVGLEHLDKVIYLDQAPIGKTPRSNPATYTGVMDEIRILFAEQKEAKILGYSASRFSFNVKGGRCEKCQGDGDIKIEMHFLPDVLVQCDSCKGAKYNPQTLEIKVKGKSIADVLNMSVEEAYEFFAKFPKIAVKLKTLMDVGLGYITLGQNATTLSGGEAQRIKLAKELSKKDTGKTLYILDEPTTGLHFEDVNHLLQVLHSLVALGNSMLVIEHNLDIIKNADYIIDMGPDGGDKGGKVIASGTPLEVAQNCEKTQSYTGKFLALELK | failed
3 | MDKIRTLLLRLPRRQKRVLQVVTDILLVWVALWMAFVVRLGFDDLNNPFIVHFWLFASAPIVAIPLFIRFGMYRAVMRYFGNDALIAIVKAVTLSALTLALVVYVYSNHQTVVPRSIVFNYWWLSMVMIGGLRLAMRQYFLGDWFTTAQHVPFTNRDDGLPKVAIYGAGAAGNQLVAALRLGRLMRPVAFIDDDGSIADRMIAGLQVYKPKHLQQMIDDTGAEEILLAIPSSSRSRRREILGYLEGFPLHVRSVPGFMDLASGRVKVDDIQEVDIADLLGRDAVPAQVDLLAHCIKGQTVLVTGAGGSIGSELCRQILLQGPSTLILLDHSEFNLYSILSELEQRVSRESRLVKLLPILGSVRNYEKLLSVMRTWSVDTVYHAAAYKHVPMVEHNIAEGVLNNVMGTLNTAQAALQCGVANFVLISTDKAVRPTNVMGSTKRLAELTLQALSKELAPVLFDDLSNVSRVNKTRFTMVRFGNVLGSSGSVIPLFHKQIKSGGPLTVTHPKITRYFMTIPEAAQLVIQAGSMGQGGDVFVLDMGEPVRIVELAEKMIHLSGLSVRSEKNPHGDIAIEFTGLRPGEKLYEELLIGDNVAATQHPMIMSANEDHLPWETLKLKLAELLAALELDDYARVRQLLRETVSGYTPDGEIVDWVYQQRRLKP | failed
4 | MDKKSKPDWAGESLLSNFVNLLIQTKPIYGVMKQQARQVLIKTAEKNGIPWRKNYEALQVSPAKKLLAAVTNPHVIYPDYYKVPFHAYTEGNLCWDAAFETESATYAMALRVWPQENLTWEAAHARLRGTFHDALETYAPQQVRDILDIGCSVGVSTLALHRYYQRRERYPVRTVGLDLSPYMLAVAKTRDVNSEISEWLHARAENTGLPDKSFDLVTIQFVTHELPGYVSQEIFAEAKRLLRPGGYIALVDNNPRSPVIQNLPPVLFTLMKSTEPWSDDYYTFDIEAALQAVGFAPPITVPSDPRHRTIIARKPD | failed
5 | MDKKVEKIQEKVRLFYKKHQRNTTIVVVISLSMILILGMAAWYEGKGISYEAKQTALREKQHALQKKRDDILAGKMTEASTQTTINNFSKQEITGENELVTITGTNGQLNINDANIYVSDNAGIVSNQLKQKMFQLNQQLLENANGAQFMLITVPALPSGESVESYSNKIANQLGVGDREKNNGVVFLMAIEDRESRLEVGYGLESILTDSYADDIINNEEVKEAFRDEDYNTGLNKIIDQVSAAINSKTAQVDNELTNIQTELNTNTTKRNVLLMASIAGMLICAVYILQILRTRKLVKKMYQDYLNCLPTKAVLNNSEQTKKVLNKMKKTSFYCLYLNGATLFATKGKIRRATKRGSLLSIYPNAKKQSFGRLLVGDTLYSYDGSVLTYAYLNSQYNPSNHSSSGSGSGGSFGGGSFGGGGASGSWLEHHHHHH | not failed
6 | MDKLEPLRINMRHGSILAVHFFIPGKPTICHQTARTLIRHIPFQCLLRVTSQNLDVGEFVKIYHEEKAEVKSSSLAKKIPKTSNLLASTSDKLELARAITTFKEEEIRHLAEPDDVDFVLTLDVADVGVSKIVIDVGSLIDLLFLSTLGENGK | failed
7 | MDKNTRVGKRKKRNKAMRIFWSVMAVILVAIGGFALYEYNTVKNAADTAYRSGGLGNAENGSKNSVISNSKPIAILLMGTDTGALGRTYKGRTDSIMVAVLNPKTKKTTLVSFERDQQVNLPDYPENSPSKLNAAYAYGNAKELAKVLKKYYNIPINAYVLINMGGLKTIVNKVVGVDIAPILSFSYEGYTFTKGKTTHMDGAKALAYSRMRYDDPEGDYGRQKRQRQVLSALLNKAESATTLLNSSFISSLSKQVQTDFTFSDMTSMAKRYLAATKDLKTDYTHGTSYMQDGVSYQKVSVSERQRISNLIRKTLGLKTKTVSTDSIDTSTSSSSSSSSTTTDSDTTGGAGNTAGPSDNGAAAGNGADSGTTGGYSAGNDQNNSTGY | failed
8 | MDKPALPIYLVVHFSYGDVTFPLQGRSYWTVGRSQDNDLVIRDNCISRNHAILQATEEDTFLLIDLGSRNGTFVNGRRVSVPIAIQDQDKITFGKTEAQFYSDQNGTPSGLLRNPAEWDTQTNVLHERRLITVLVADMRNFTGMAQQVEEELLSMLIGNWFRQAGHILREAGSWVDKYIGDAVMAIWFHGYNEATPAEIIQILHAVNRLQAMTAKLNQKYELPFPLRIGTGINTGYAMVGNTGSGDHPDYTAIGDTVNAAFRLESATKQAHFDLAMSEKTFSYLQDLPQWSATVQQHTIELKGYTNPITIYGLPFATLGTLLDHTSLEDTTPASEGP | failed
9 | MDKRIATIILSIVNIIGIFEFPLYESFIGFFFISSALSILYESQLSLIVPTVLFASLVLLHIITIQLQKLIILSILMLISIIGKNNKWIYSILITLAPGLIINNLYLLLIVLALLIPLLIKLGGEPRAIIISGILYLIYSGIIFPNNEALANQISQISYFYLMFGIIGIIVEDKRITRITLRKILPYLSFIPASFASIMLGYPSDSSFIYWSASSFYFSHLYLPWIYEIGYNSNQHLIASWFLAYLLTLIIKNPLITAEVFLGIFTFLSGLISYYVFKRLNLKYPLLFSLLYQINIFNPIISHSISVFSYAFLPLVLFFAYNKNKVLYSILTLTAASSIPIFISTLVIPLVYRRYYFLLYALGVNAFWLIPFLIFGYDKFTFNVSNIEILISIILVSISVLLYQLRFKNIEILYMIFISFVLLILGINTGPLILLATILTLGSLRDISILYLTLLSGLIILSATSFSYGVISGYANTTFYTYNLPNLPKPGEYGFGITTLVNDLNLTASGMPTESISYNVRYFIYNSRVIENPLYFGFPIPAIPNYTPQLTFSYIYSNSSVKVIYSPFNKPLGLMVYSNVTPSKISIVFPTRIENISGIKGLVKNYTIQIITNTSLTIIGGKVTVDNKSIFSSYYKPKIVTSIMIGEITEVIDSNYSIYLPIHESLTINGKVVNHPIILPPGKYTIVISDEKIEYVSYASIFLTIVSLVLLIRRGMKV | failed
10 | MDKRIVGTNAGKVWCALKEIGEISIPELARRLNLSVESTALAAGWLARENKICIQRKNGLIALSDESAFPFSFG | failed
11 | MDKRLIVMHNLSRHYGKQYWWQQNSLEDWLMMILIQRTSSKNVAQAVHNLQPYMQVDRLMALSQSELETLVRPAGFYRQKAQRIHDLLTWFVAQGGSFEKIAEKPAAELRETLLALNGIGNETADVMLMYTFGKKTFVADTYAMRLFNRLGFGPYTNYAKMQADFAPALDQITLDEAREWHALIDEHGKTQVRHAYDDRFLLQPDLTEAAWPPEAVQVEPPHDDPGSGKWRHAADPSAMTHK | failed

From a protein production outcome set (Wang et al. 2014)
